Test results taken from patent US9486502B2, “Methods of administering interferon gamma to absorb fluid from the subretinal space” (The United States of America, as represented by the …, priority 2008, dated 2016).

How the values were obtained:
[1] = Phase I study of topical interferon gamma-1b in CME secondary to uveitis (OCT macular thickness); format: in vivo, human; settings: based on therapeutic treatment of topical IFNα
Source text: To test whether cystoid macular edema (CME), secondary to uveitis, is caused by the disequilibrium of the Jak/Stat and mTor signal transduction pathways in the retinal pigment epithelium (RPE), interferon gamma-1β topically applied in human patients. Five participants with CME secondary to uveitis receive a topical ocular instillation of interferon gamma-1b in a Phase I, non-randomized, prospective, uncontrolled, dose-escalation, single-center study. The study involves a one-time instillation or series of instillations of interferon gamma-1b on the cornea and measurement of a response with optical coherence tomography (OCT) over a three hour period.
A 25% decrease in macular thickness is observed at a post-instillation as compared to baseline. In the study, the first two participants receive one instillation (each instillation contains […] in 0.05 mL solution) on the cornea at time zero, the next two participants receive two instillations, 10 minutes apart, for a total dosage of 20 μg, and the final participant receives three instillations, 10 minutes apart, for a total of 30 μg. OCT will be obtained at −60 minutes, −30 minutes and just before the instillation(s). […]
Participants with CME secondary to uveitis are treated with ocular instillation(s) of interferon gamma-1b. […] The effect on the retinal thickness is measured using OCT measurements as indicated below. […]

[2] = system: hfRPE monolayers; assay: fluid transport (JV, TEP, RT) across hfRPE monolayers in modified Üssing chamber; format: cell-based, human
Source text: Confluent monolayers of hfRPE cultured on transwells were mounted in a modified Üssing chamber and transepithelial water flow measurements (JV) were made with a capacitance probe technique as described previously in Maminishkis, A., et al., Invest Ophthalmol Vis Sci, 2006, 47, 3612-3624; Shi, G., et al., Invest Ophthalmol Vis Sci, 2008, 49, 4620-4630; Edelman, J. L., et al., Invest Ophthalmol Vis Sci, 1991, 32, 3033-3040; Jiang, C., et al., Science, 1993, 262, 424-427; and Maminishkis, A., et al., Invest Ophthalmol Vis Sci, 2002, 43, 3555-3566, each incorporated herein by reference in its entirety.
Tissue viability was ascertained by recording transepithelial potential (TEP) and total tissue resistance (RT). It should be noted that the solution composition changes in this chamber were relatively slow (≈1-2 chamber volumes per minute) and the data sampling rate was once per minute, more than two orders of magnitude slower than the sampling rate in the electrophysiology chamber (see below). Therefore it was not possible to record fast changes, in seconds or minutes, in JV, TEP, or RT. After addition of IFNγ to the apical or basal baths, steady-state JV, TEP, and RT were recorded for 20-30 minutes. In control experiments, successive additions of IFNγ were made to test for the repeatability and reversibility of responses. To block IFNγ effects, RPE cells were incubated for 30-60 minutes with a blocking antibody against IFNγ R1, JAK inhibitor I, PKA inhibitors (H-89, EMD Biosciences; RP-8-Br-cAMPS, Sigma-Aldrich), nitric oxide synthase inhibitor (aminoguanidine hydrochloride, Sigma-Aldrich), P38 MAPK inhibitors (SB203580 or SB20290), or CHX. Other components of this signaling pathway were studied using P38 MAPK inhibitors (SB203580 and SB202190). Relatively specific Cl channel inhibitors, CFTRinh-172 or DIDS (EMD Biosciences, La Jolla, Calif.), were used to block cAMP or Ca^2+-activated Cl channels; experiments with CFTRinh-172 were performed as described in Muanprasat, C., et al., J Gen Physiol, 2004, 124, 125-137, incorporated herein by reference in its entirety. In chronic experiments, paired hfRPE tissues with matched RT values were incubated for 4-24 hours with IFNγ or CHX. The subsequent changes in JV, RT, and TEP were measured in Ringer's solution or serum free cell culture media as previously described in Shi, G., et al., Invest Ophthalmol Vis Sci, 2008 and Maminishkis, A., et al., Invest Ophthalmol Vis Sci, 2006, 47, 3612-3624, each incorporated herein by reference in its entirety. Intracellular levels of NO were elevated with 1-Hydroxy-2-oxo-3-(3-aminopropyl)-3-isopropyl-1-triazene (NOC-5, Enzo Life Sciences, Plymouth, Pa.). 8-Br-cGMP was purchased from Sigma-Aldrich.

B1: IFNγ: pleiotropic cytokine produced by T- and NK-cells; obtained from Peprotech (protein, UniProt P01579 24-161, looked up)
Interferon gamma: QDPYVKEAENLKKYFNAGHSDVADNGTLFLGILKNWKEESDRKIMQSQIVSFYFKLFKNFKDDQSIQKSVETIKEDMNVKFFNSNKKKRDDFEKLTNYSVTDLNVQRKAIHELIQVMAELSPAAKTGKRKRSQMLFRG
[1]
  tolerability of topically applied IFNγ: well-tolerated
[2]; 10 experiments, from 12.9±1.6, mean±s.e.m.
  mean JV after IFNγ: 20.5±3.1 μl·cm^−2·hr^−1
[2]; IFNγ 5 ng/ml apical and basal, 24 hours
  TEP after 24 hour IFNγ: no significant TEP changes
[2]; IFNγ 5 ng/ml apical and basal, 24 hours, control 7.6±1.5, 5 experiments
  mean JV after 24 hour IFNγ: 15.2±2.0 μl·cm^−2·hr^−1
[2]; IFNγ 5 ng/ml basal bath
  cell viability as measured by TEP and RT: no apparent changes
[2]; IFNγ 5 ng/ml in the basal bath, FIG. 14A
  increase in JV: ~8.6 μl·cm^−2·hr^−1
[2]; IFNγ 5 ng/ml, 24 hours, from 592±80, n=5
  RT after 24 hour IFNγ: 356±139 Ω·cm^2
[2]; IFNγ added to the apical bath
  effect on JV: no significant effect
[2]; at 24 hours
  IFNγ-induced resistance change: ≈ 2 fold
  mean IFNγ-induced resistance change: ≈ 240 Ω·cm^2
[2]; continued presence of Rp-8-Br-cAMPS 2 μM, six experiments
  JV after subsequent addition of IFNγ: 8.4±1.7 μl·cm^−2·hr^−1
[2]; in presence of H-89, four experiments
  JV after subsequent addition of IFNγ: 14.7±4.7 μl·cm^−2·hr^−1
[2]; nine experiments (P38 series), from 7.5 ±1.9
  mean JV after IFNγ: 16.5±2.2 μl·cm^−2·hr^−1
[2]; three experiments (H-89 series), from 8.4±1.6
  mean JV after IFNγ: 20.1±0.2 μl·cm^−2·hr^−1
